# Measured values reported in article PMC6169833.
# B1: Nup153-N wild type (1- to 608-amino-acid N-terminal construct of Nup153), C-terminally Flag-tagged [human] / endogenous Nup107 [human (endogenous in HEK293T)] (parent)
# chain 1: MASGAGGVGGGGGGKIRTRRCHQGPIKPYQQGRQQHQGILSRVTESVKNIVPGWLQRYFNKNEDVCSCSTDTSEVPRWPENKEDHLVYADEESSNITDGRITPEPAVSNTEEPSTTSTASNYPDVLTRPSLHRSHLNFSMLESPALHCQPSTSSAFPIGSSGFSLVKEIKDSTSQHDDDNISTTSGFSSRASDKDITVSKNTSLPPLWSPEAERSHSLSQHTATSSKKPAFNLSAFGTLSPSLGNSSILKTSQLGDSPFYPGKTTYGGAAAAVRQSKLRNTPYQAPVRRQMKAKQLSAQSYGVTSSTARRILQSLEKMSSPLADAKRIPSIVSSPLNSPLDRSGIDITDFQAKREKVDSQYPPVQRLMTPKPVSIATNRSVYFKPSLTPSGEFRKTNQRIDNKCSTGYEKNMTPGQNREQRESGFSYPNFSLPAANGLSSGVGGGGGKMRRERTRFVASKPLEEEEMEVPVLPKISLPITSSSLPTFNFSSPEITTSSPSPINSSQALTNKVQMTSPSSTGSPMFKFSSPIVKSTEANVLPPSSIGFTFSVPVAKTAELSGSSSTLEPIISSSAHHVTTVNSTNCKKTPPEDCEGPFRPAEILKEGSV
# chain 2: MDRSGFGEISSPVIREAEVTRTARKQSAQKRVLLQASQDENFGNTTPRNQVIPRTPSSFRQPFTPTSRSLLRQPDISCILGTGGKSPRLTQSSGFFGNLSMVTNLDDSNWAAAFSSQRSGLFTNTEPHSITEDVTISAVMLREDDPGEAASMSMFSDFLQSFLKHSSSTVFDLVEEYENICGSQVNILSKIVSRATPGLQKFSKTASMLWLLQQEMVTWRLLASLYRDRIQSALEEESVFAVTAVNASEKTVVEALFQRDSLVRQSQLVVDWLESIAKDEIGEFSDNIEFYAKSVYWENTLHTLKQRQLTSYVGSVRPLVTELDPDAPIRQKMPLDDLDREDEVRLLKYLFTLIRAGMTEEAQRLCKRCGQAWRAATLEGWKLYHDPNVNGGTELEPVEGNPYRRIWKISCWRMAEDELFNRYERAIYAALSGNLKQLLPVCDTWEDTVWAYFRVMVDSLVEQEIQTSVATLDETEELPREYLGANWTLEKVFEELQATDKKRVLEENQEHYHIVQKFLILGDIDGLMDEFSKWLSKSRNNLPGHLLRFMTHLILFFRTLGLQTKEEVSIEVLKTYIQLLIREKHTNLIAFYTCHLPQDLAVAQYALFLESVTEFEQRHHCLELAKEADLDVATITKTVVENIRKKDNGEFSHHDLAPALDTGTTEEDRLKIDVIDWLVFDPAQRAEALKQGNAIMRKFLASKKHEAAKEVFVKIPQDSIAEIYNQCEEQGMESPLPAEDDNAIREHLCIRAYLEAHETFNEWFKHMNSVPQKPALIPQPTFTEKVAHEHKEKKYEMDFGIWKGHLDALTADVKEKMYNVLLFVDGGWMVDVREDAKEDHERTHQMVLLRKLCLPMLCFLLHTILHSTGQYQECLQLADMVSSERHKLYLVFSKEELRKLLQKLRESSLMLLDQGLDPLGYEIQL
# Variants of: B1
# Test: Flag immunoprecipitation and Western blotting, quantified with ImageJ
# Conditions: HEK293T cells transfected with Nup153-N constructs, harvested 72 h after transfection, parent: 1, read off a plot
row,ratio to parent,Variant
1,0.57,chain 1 S516E S518E S519E S522E
